Values of other authors as cited in article PMC4732575.

How the values were obtained:
[1] = target: LDLR (Homo sapiens) (UniProt P01130)
[2] = target: CD36 (Homo sapiens) (UniProt P16671)
CD36 (Homo sapiens), sequence (P16671 2-472): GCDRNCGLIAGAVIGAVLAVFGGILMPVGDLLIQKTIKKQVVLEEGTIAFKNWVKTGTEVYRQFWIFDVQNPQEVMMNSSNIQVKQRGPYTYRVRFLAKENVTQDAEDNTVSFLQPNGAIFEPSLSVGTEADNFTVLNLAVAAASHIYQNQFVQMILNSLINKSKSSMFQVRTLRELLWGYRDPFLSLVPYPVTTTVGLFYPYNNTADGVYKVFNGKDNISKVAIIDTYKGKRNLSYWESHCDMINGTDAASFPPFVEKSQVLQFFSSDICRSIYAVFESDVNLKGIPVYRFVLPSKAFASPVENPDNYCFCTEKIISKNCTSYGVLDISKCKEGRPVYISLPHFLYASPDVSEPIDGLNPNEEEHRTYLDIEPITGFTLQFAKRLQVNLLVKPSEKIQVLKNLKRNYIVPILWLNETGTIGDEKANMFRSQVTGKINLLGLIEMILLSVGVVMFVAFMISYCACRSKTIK

PCSK9, sequence (Q8NBP7 153-692): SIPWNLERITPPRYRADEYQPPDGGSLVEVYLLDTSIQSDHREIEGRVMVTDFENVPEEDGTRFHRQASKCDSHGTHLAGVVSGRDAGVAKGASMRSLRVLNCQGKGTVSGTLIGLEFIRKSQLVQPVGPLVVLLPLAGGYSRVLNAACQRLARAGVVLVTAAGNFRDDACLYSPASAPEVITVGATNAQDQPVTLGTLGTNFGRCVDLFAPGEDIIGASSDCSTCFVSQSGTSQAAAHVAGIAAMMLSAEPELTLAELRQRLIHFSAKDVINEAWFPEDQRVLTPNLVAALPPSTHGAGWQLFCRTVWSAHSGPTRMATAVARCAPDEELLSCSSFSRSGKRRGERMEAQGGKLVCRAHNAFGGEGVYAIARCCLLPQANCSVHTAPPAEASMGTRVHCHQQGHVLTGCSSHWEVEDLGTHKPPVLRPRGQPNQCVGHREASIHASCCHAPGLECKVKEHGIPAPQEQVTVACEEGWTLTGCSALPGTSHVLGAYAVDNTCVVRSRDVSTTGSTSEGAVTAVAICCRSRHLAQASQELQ
LDLR (Homo sapiens), sequence (P01130 22-788): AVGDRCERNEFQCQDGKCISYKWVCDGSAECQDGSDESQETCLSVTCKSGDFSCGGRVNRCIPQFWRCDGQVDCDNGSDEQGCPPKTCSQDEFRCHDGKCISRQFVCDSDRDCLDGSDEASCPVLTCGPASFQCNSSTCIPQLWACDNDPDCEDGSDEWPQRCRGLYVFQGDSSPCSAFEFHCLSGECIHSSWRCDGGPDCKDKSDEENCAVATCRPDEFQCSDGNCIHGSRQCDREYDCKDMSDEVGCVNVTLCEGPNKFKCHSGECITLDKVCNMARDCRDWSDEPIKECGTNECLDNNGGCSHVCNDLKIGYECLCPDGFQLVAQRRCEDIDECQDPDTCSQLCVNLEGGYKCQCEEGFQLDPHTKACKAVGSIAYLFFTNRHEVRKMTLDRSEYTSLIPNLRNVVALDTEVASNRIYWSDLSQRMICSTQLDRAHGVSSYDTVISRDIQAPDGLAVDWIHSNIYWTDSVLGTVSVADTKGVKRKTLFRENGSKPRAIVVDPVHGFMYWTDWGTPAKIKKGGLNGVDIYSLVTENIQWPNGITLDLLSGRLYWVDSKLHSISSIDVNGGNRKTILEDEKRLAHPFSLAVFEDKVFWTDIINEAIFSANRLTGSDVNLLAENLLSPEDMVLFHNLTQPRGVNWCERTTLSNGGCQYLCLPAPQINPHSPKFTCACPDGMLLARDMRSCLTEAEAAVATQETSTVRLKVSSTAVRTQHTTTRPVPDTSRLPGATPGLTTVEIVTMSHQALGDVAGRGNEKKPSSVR

PCSK9 (from UniProt Q8NBP7)
Kd [1]: 1000 nM
Kd [2]: 1000 nM
